Measurements from the supplement of paper PMC7877785.
± gives the uncertainty stated by the source.

Test: self-splicing fitness, log relative to wild type (ln ratio); higher = more splicing; Tetrahymena group I intron in knt gene, E. coli kanamycin selection, DiMSum; sequences stand for … in CUCUCU…GGAGGGAAAAGUUAUCAGGCAUGCACCUGGUAGCUAGUCUUUAAACCAAUAGAUUGCAUCGGUUUAAAAGGCAAGACCGUCAAAUUGCGGGAAAGGGGUCAACAGCCGUUCAGUACCAAGUCUCAGGGGAAACUUUGAGAUGGCCUUGCAAAGGGUAUGGUAAUAAGCUGACGGACAUGGUCCUAACCACGCAGCCAAGUCCUAAGUCAACAGAUCUUCUGUUGAUAUGGAUGCAGUUCACAGACUAAAUGUCGGUCGGGGAAGAUGUAUUCUUCUCAUAAGAUAUAGUCGGACCUCUCCUUAAUGGGAGCUAGCGGAUGAAGUGAUGCAACACUGGAGCCGCUGGGAACUAAUUUGUAUGCGAAAGUAUAUUGAUUAGUUUUGGAGUACUCGUGGUCG
Method in brief: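 DiMSum derived fitness as the error-weighted combination of fold changes across replicates, kanamycin versus no kanamycin, normalised to wild type. E. coli BL21(DE3) held the library, which randomised all eight P1ex-region intron nucleotides within the knt kanamycin-resistance gene on pET-22b(+). Six replicate transformations grew overnight at 37°C or 30°C on LB agar with or without 25 μg/mL kanamycin, also containing 100 μg/mL carbenicillin, 50 μM IPTG and 0.2% rhamnose, and pooled colonies were amplicon-sequenced on an Illumina HiSeq 2500.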

| Sequence | self-splicing fitness (ln) (30 °C) | self-splicing fitness (ln) (37 °C) |
| --- | --- | --- |
| GCAUAGCAAUAUUACGUACA | -1.56 ± 0.15 | -0.421 ± 0.13 |
| GAGGAGCAAUAUUACGGCUG | -1.48 ± 0.15 | -1.88 ± 0.31 |
| CCUAAGCAAUAUUACGCCGG | -3.61 ± 0.24 | -2.57 ± 0.21 |
| GCUAAGCAAUAUUACGACCC | -0.411 ± 0.11 | 0.239 ± 0.14 |
| GACAAGCAAUAUUACGUGAU | -1.77 ± 0.071 | -1.17 ± 0.09 |
| GCAAAGCAAUAUUACGCUGC | -3.72 ± 0.42 | – |
| CUAUAGCAAUAUUACGACGU | -3.85 ± 0.37 | -1.96 ± 0.3 |
| GCCCAGCAAUAUUACGCUGG | -2.86 ± 0.15 | -3.32 ± 0.28 |
| AUGAAGCAAUAUUACGGUAG | -2.93 ± 0.17 | -2.03 ± 0.23 |
| CAUGAGCAAUAUUACGGAAC | -3.01 ± 0.33 | -2.65 ± 0.35 |
| UGCGAGCAAUAUUACGGGUA | -1.19 ± 0.18 | -0.698 ± 0.21 |
| CUUCAGCAAUAUUACGCCGA | – | -2.47 ± 0.31 |
| CUCAAGCAAUAUUACGCAGA | -3.06 ± 0.5 | -2.41 ± 0.21 |
| GAAUAGCAAUAUUACGAGGA | -2.85 ± 0.33 | -1.5 ± 0.18 |
| ACUCAGCAAUAUUACGCCGU | -1.24 ± 0.076 | -0.58 ± 0.093 |
| CUGAAGCAAUAUUACGGGUG | -0.0462 ± 0.047 | 0.304 ± 0.071 |
| CCCUAGCAAUAUUACGGUCC | -3.45 ± 0.22 | -1.51 ± 0.28 |
| AUUCAGCAAUAUUACGGCUU | 0.744 ± 0.12 | -0.128 ± 0.13 |
| GAGCAGCAAUAUUACGUUAU | -1.77 ± 0.087 | -1.3 ± 0.12 |
| CAACAGCAAUAUUACGCUAC | -4.32 ± 0.24 | -2.3 ± 0.15 |
| CACAAGCAAUAUUACGUCAG | -1.25 ± 0.051 | -0.508 ± 0.064 |
| AAAGAGCAAUAUUACGGGAU | -4.18 ± 0.23 | -2.09 ± 0.17 |
| CCAGAGCAAUAUUACGGGAG | -3.51 ± 0.23 | -3.55 ± 0.3 |
| UUGUAGCAAUAUUACGCGAC | – | -0.429 ± 0.37 |
| AAAGAGCAAUAUUACGUAGC | -4.35 ± 0.27 | -2.45 ± 0.24 |

| Sequence | self-splicing fitness (ln) (30 °C) | self-splicing fitness (ln) (37 °C) |
| --- | --- | --- |
| AUGGAGCAAUAUUACGAUUC | -2.21 ± 0.3 | – |
| UGAAAGCAAUAUUACGCAUG | -0.902 ± 0.079 | -0.484 ± 0.091 |
| GUGAAGCAAUAUUACGGGCG | -0.39 ± 0.052 | -0.217 ± 0.065 |
| UAAGAGCAAUAUUACGAUCC | -1.81 ± 0.36 | – |
| UCAUAGCAAUAUUACGGGUA | -1.8 ± 0.094 | -1.53 ± 0.079 |
| UUACAGCAAUAUUACGUCCA | -0.325 ± 0.096 | -0.181 ± 0.11 |
| AUUCAGCAAUAUUACGCGCA | -0.00177 ± 0.12 | -0.315 ± 0.12 |
| ACAUAGCAAUAUUACGACUG | -0.814 ± 0.065 | -0.36 ± 0.09 |
| ACCUAGCAAUAUUACGGAAA | -1.79 ± 0.16 | -1.51 ± 0.12 |
| AUCGAGCAAUAUUACGGACC | -0.501 ± 0.48 | – |
| AAACAGCAAUAUUACGUCGC | -3.37 ± 0.21 | -2.92 ± 0.23 |
| GGUUAGCAAUAUUACGUGUA | -1.7 ± 0.13 | -0.817 ± 0.1 |
| GGAUAGCAAUAUUACGAGGG | -3.29 ± 0.28 | -2.33 ± 0.27 |
| GUUCAGCAAUAUUACGUUCA | -0.741 ± 0.12 | -0.425 ± 0.13 |
| UUCGAGCAAUAUUACGACGC | – | -2.67 ± 0.48 |
| AUCAAGCAAUAUUACGUAGG | -2.91 ± 0.1 | -1.51 ± 0.11 |
| UUUCAGCAAUAUUACGGCCU | -3.87 ± 0.47 | -1.33 ± 0.25 |
| CUGAAGCAAUAUUACGUUCG | 0.231 ± 0.06 | -0.181 ± 0.082 |
| ACAAAGCAAUAUUACGCAUG | -1.82 ± 0.075 | -0.868 ± 0.084 |
| UGCCAGCAAUAUUACGGUGU | -2.53 ± 0.11 | -2.7 ± 0.19 |
| CUCAAGCAAUAUUACGGACG | -0.792 ± 0.063 | 0.266 ± 0.095 |
| UGGCAGCAAUAUUACGGUCU | -0.537 ± 0.066 | 0.29 ± 0.087 |
| CGGUAGCAAUAUUACGUCAC | -2.59 ± 0.34 | -1.82 ± 0.48 |
| GAAAAGCAAUAUUACGCAGG | -2.07 ± 0.076 | -1.85 ± 0.087 |
| UUUGAGCAAUAUUACGGGUA | -2.8 ± 0.46 | – |

| Sequence | self-splicing fitness (ln) (30 °C) | self-splicing fitness (ln) (37 °C) |
| --- | --- | --- |
| UCGCAGCAAUAUUACGCAAA | -2.05 ± 0.13 | -1.53 ± 0.11 |
| CACGAGCAAUAUUACGUACG | -2.38 ± 0.14 | -0.807 ± 0.15 |
| GGCGAGCAAUAUUACGGUUG | -2.57 ± 0.14 | -0.892 ± 0.16 |
| CCAUAGCAAUAUUACGGUGG | -3.66 ± 0.13 | -3.4 ± 0.18 |
| GUUUAGCAAUAUUACGUGCC | -2.91 ± 0.36 | – |
| UUCAAGCAAUAUUACGAAGA | -2.03 ± 0.19 | -1.26 ± 0.19 |
| UAGAAGCAAUAUUACGAUAU | -3.44 ± 0.25 | -2.19 ± 0.19 |
| GUCAAGCAAUAUUACGUACU | -1.98 ± 0.13 | -0.175 ± 0.12 |
| UGCUAGCAAUAUUACGAGGC | -2.55 ± 0.19 | -1.89 ± 0.34 |
| UUAGAGCAAUAUUACGUAUU | -5.06 ± 0.45 | -2.91 ± 0.35 |
| AUUGAGCAAUAUUACGGUCG | -2.92 ± 0.36 | -2.52 ± 0.45 |
| AAAGAGCAAUAUUACGCAUG | -2.55 ± 0.18 | -1.7 ± 0.098 |
| AAUCAGCAAUAUUACGUUAG | -3.15 ± 0.2 | -2.86 ± 0.23 |
| UGCAAGCAAUAUUACGUGUG | -2.69 ± 0.098 | -2.81 ± 0.14 |
| UAAGAGCAAUAUUACGUCCA | -3.08 ± 0.34 | -2.4 ± 0.41 |
| GUUGAGCAAUAUUACGCUCG | -2.49 ± 0.16 | -2.34 ± 0.3 |
| AAUUAGCAAUAUUACGUGUU | -1.05 ± 0.11 | -1.78 ± 0.13 |
| GAAGAGCAAUAUUACGUAUC | -3.42 ± 0.21 | -3.41 ± 0.22 |
| GCAGAGCAAUAUUACGCCAA | -2.73 ± 0.38 | -2.72 ± 0.44 |
| UUAAAGCAAUAUUACGGAUA | -0.925 ± 0.13 | -0.197 ± 0.16 |
| AAUGAGCAAUAUUACGAGAU | -3.92 ± 0.21 | -2.23 ± 0.13 |
| GGCCAGCAAUAUUACGCGAA | -0.824 ± 0.12 | -1.41 ± 0.14 |
| UGUGAGCAAUAUUACGUCAU | – | -1.32 ± 0.4 |
| UGCAAGCAAUAUUACGAAAG | -2.6 ± 0.12 | -1.53 ± 0.13 |
| CCUCAGCAAUAUUACGUAAU | -4.03 ± 0.21 | -2.74 ± 0.22 |

| Sequence | self-splicing fitness (ln) (30 °C) | self-splicing fitness (ln) (37 °C) |
| --- | --- | --- |
| CUGGAGCAAUAUUACGGCUU | -4.3 ± 0.42 | -2.68 ± 0.33 |
| AUGCAGCAAUAUUACGUGUC | -3.68 ± 0.18 | -3.18 ± 0.2 |
| CGUCAGCAAUAUUACGACAC | -1 ± 0.14 | 0.484 ± 0.13 |
| UAGUAGCAAUAUUACGUUUG | -2.4 ± 0.18 | -0.923 ± 0.14 |
| AGUUAGCAAUAUUACGUGUG | -3.18 ± 0.15 | -1.8 ± 0.13 |
| UCAAAGCAAUAUUACGACAA | -1.96 ± 0.19 | -1.22 ± 0.14 |
| GACGAGCAAUAUUACGCUUG | -4 ± 0.26 | -1.27 ± 0.16 |
| GAAUAGCAAUAUUACGCAGC | -2.72 ± 0.2 | -1.93 ± 0.2 |
| GUCCAGCAAUAUUACGCCGC | -4.18 ± 0.33 | -2.58 ± 0.27 |
| AAAAAGCAAUAUUACGAGUG | -1.35 ± 0.088 | -1.18 ± 0.09 |
| ACAUAGCAAUAUUACGAGUU | -3.28 ± 0.18 | -2.28 ± 0.2 |
| UCUUAGCAAUAUUACGAACU | -2.7 ± 0.36 | -1.84 ± 0.25 |
| CCUAAGCAAUAUUACGGUAG | -1.27 ± 0.078 | -0.941 ± 0.097 |
| CGGCAGCAAUAUUACGCAUU | -2.66 ± 0.15 | -2.33 ± 0.14 |
| UGGAAGCAAUAUUACGGCCU | -0.816 ± 0.11 | -0.639 ± 0.13 |
| CUUCAGCAAUAUUACGAUCG | -0.136 ± 0.044 | 0.234 ± 0.069 |
| GCACAGCAAUAUUACGCCAG | -1.99 ± 0.25 | -2.06 ± 0.26 |
| UAUGAGCAAUAUUACGGUUG | -4.24 ± 0.43 | -2.38 ± 0.45 |
| CCCCAGCAAUAUUACGGUGC | -3.88 ± 0.19 | -2.73 ± 0.18 |
| CCUUAGCAAUAUUACGCGCC | -2.8 ± 0.4 | – |
| AAUCAGCAAUAUUACGAUAU | 0.477 ± 0.082 | 0.538 ± 0.1 |
| GGGAAGCAAUAUUACGAUGA | -0.977 ± 0.13 | -0.771 ± 0.13 |
| GUGGAGCAAUAUUACGUCAA | -1.28 ± 0.33 | -1.78 ± 0.32 |
